# Results: PMC11282748
# Target: foldase protein PrsA of Staphylococcus aureus MW2 (recombinant, without signal peptide) (Staphylococcus aureus MW2)
# Experiment: SEC-MALS; Superdex 200 Increase 10/300; ~1 mg of protein loaded; 50 mM Tris-HCl, 150 mM NaCl, 2.5% (v/v) glycerol, pH 7.8; flow 0.4 ml/min
substance,measurement,value
"foldase protein PrsA of Staphylococcus aureus MW2 (recombinant, without signal peptide) (natural protein)",stoichiometry N,2
